Reference: US20130316958A1 (University of Southern California, priority 2010, published 2013)
Non-standard residues stand in square brackets, D forms with d. No end group written: not given here.

Tests used:
Atg3 [1] = biological target: T1, Atg3 (Homo sapiens, UniProt Q9NT62); experiment: GST pulldown of KSHV vFLIP α-helix fragments and deletion mutants; type: binding; details: GST fusions or deletion mutants in HEK293T
T1 construct: GFP (alternative construct GFP-Atg3, not on the same molecule as GST); expressed in transfected cells; host or cells: HEK293T
T1 sequence (Q9NT62 whole entry, the tested form may be a part): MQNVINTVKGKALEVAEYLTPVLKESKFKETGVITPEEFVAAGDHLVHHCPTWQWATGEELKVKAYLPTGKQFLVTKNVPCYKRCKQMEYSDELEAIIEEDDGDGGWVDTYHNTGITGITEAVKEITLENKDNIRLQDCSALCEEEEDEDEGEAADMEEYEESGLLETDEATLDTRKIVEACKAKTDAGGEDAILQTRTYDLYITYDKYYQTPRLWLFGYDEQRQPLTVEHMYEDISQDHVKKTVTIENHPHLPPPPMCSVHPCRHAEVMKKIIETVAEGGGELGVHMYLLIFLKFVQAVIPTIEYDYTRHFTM
Description: Due to the substantial similarities between DEDI and DED2, Atg3 bound each DED of KSHV vFLIP with a similar affinity. Structural analyses have shown that the DED1 and DED2 of KSHV vFLIP and MCV 159L contain six and five α-helixes, respectively. (Yang et al. (2005) Mol. Cell. 20:939-949); Bagneris et al. (2008) Mol. Cell. 30:620-631). To further define the Atg3 binding sequences, each DED of KSHV vFLIP was divided into small α-helix fragments based on the previous structural analysis and expressed as mammalian GST fusions. Truncated mutant constructs of KSHV-vFLIP and hATG3 were created by subcloning the PCR products of cDNA fragments containing each domain of the associated genes into pcDNA5/FRT/TO. HEK293T cells were transfected with mutant constructs for GST pulldown as described above, followed by immunoblotting with αV5. […] In contrast, vFLIP mutants carrying a loss of 14-3-3σ, IKKαβγ complex, or FADD interaction bound Atg3 and blocked rapamycin-induced autophagy as efficiently as wild-type vFLIP.

TREX-BCBL-Vector cells = experiment: Cell death after overnight peptide incubation; type: cell-based; details: identical conditions, 30 or 50 μM
Description: (§1) The vFLIP α2 (10 aa) and α4 (12 aa) peptides that independently bound Atg3 at high efficiency were fused with the HIV-1 TAT protein transduction domain for intracellular delivery (Gump and Dowdy (2007) Trends Mol. Med. 13:443-448) and tested for their potential effects on autophagy induction. The K-α2 and K-α4 peptides contained KSHV vFLIP aa20-29 and aa128-139 regions, respectively, as retro-inverso versions to circumvent the proteolytic degradation. Mutant peptides K-α2m and K-α4m were also included, which replaced the hydrophobic core residues of the K-α2 (L21F22L23) and K-α4 (F130L-WVY139) peptides with alanines, as well as the C-α2 and C-α4 peptides containing the cFLIPs regions aa19-28 and aa128-139, respectively. At 12 hr post-transfection with GFP-LC3, KSHV-infected TREX-BCBL-Vector and TREX-BCBL-vFLIP cells were incubated with various concentrations of the peptides or rapamycin for an additional 12 hr, followed by an assessment of the GFP-LC3 puncta and cell death. […] Peptide-treated TREX-BCBL-Vector and TREX-BCBL-vFLIP cells were subjected to immunoblotting with αLC3 and aactin.

[2] = tested on: KSHV-infected TREX-BCBL-Vector cells; experiment: GFP-LC3 puncta autophagy assessment after peptide treatment; type: cell-based; details: 30 or 50 μM peptide, 12 hr
Description: as §1

ALL cells = experiment: Tumor cell viability by trypan blue exclusion, ALL cells; type: cell-based; details: BV-173 and SUP-B15, FIG. 5
Description: Tumor cells were treated with peptides at various concentrations for 12 hours and their viability measured by trypan blue exclusion, followed by analyses using the Beckman Coulter Z2 Particle Count and Size Analyzer (BC Z2 CS Analyzer). A minimum of 100 cells per sample using triplicate samples was counted per condition per experiment.

Atg3 [3] = biological target: T1, Atg3; experiment: Co-immunoprecipitation of FLIP with Atg3 in HEK293T cells; type: binding; details: endogenously and exogenously expressed Atg3
Description: The ability of FLIP to bind to Atg3 was evaluated by co-immunoprecipitation assay. HEK293T cells were transfected with Flag-vFLIP and/or GFP-Atg3 or Flag-vFLIP and/or GST-Atg3, and at 48 hr post-transfection, cells were harvested and lysed in an NP40 buffer supplemented with complete protease inhibitor cocktail (Roche). After pre-clearing with protein A/G agarose beads for 1 hr at 4° C., whole-cell lysates were used for immunoprecipitation with αFlag, αGFP, or GST. Generally, 1-4 μg of the antibody was added to 1 ml of the cell lysate and incubated at 4° C. for 8 to 12 hr. The immunoprecipitates were then washed extensively with a lysis buffer and eluted by boiling them with an SDS loading buffer for 5 min. Following immunoprecipitation, samples were treated to immunoblot using αAtg3 (1:500) (Novus).

[4] = tested on: human Atg3 deletion mutants; experiment: GST pulldown with Atg3 deletion mutants; type: binding; details: GST-Atg3, N-terminal and C-terminal regions
Description: The overall structure of yeast Atg3 has a unique hammer-like shape with the N-terminal and C-terminal regions discretely responsible for Atg7 and Atg8 (equivalent to mammalian LC3) binding, respectively. (Yamada et al. (2007) J. Biol. Chem. 282:8036-8043). Based on the structure of yeast Atg3, human Atg3 deletion mutants fused with a GST mammalian expression vector were constructed: GST-Atg31-93, GST-Atg3193-268, GST-Atg3268-315, and GST-Atg3193-315-GST-tagged hATG3 and hATG3 mutant genes were cloned into a pcDNA5/FRT/TO derivative encoding an N-terminal GST epitope tag between the BamHI and NotI sites. GST pulldown with Flag-KSHV vFLIP, Flag-cFLIPs, Flag-MCV 159L, or Flag-HVS vFLIP along with GST-Atg3, GST-Atg3 N-terminal region (Nt), or GST-Atg3 C-terminal region (Ct) was performed as described above and was followed by immunoblotting with aFlag or aGST.

[5] = biological target: T2, Atg3 (human Atg3, E2-like enzyme of the LC3 conjugation system) (human, UniProt Q9NT62 1-314); experiment: co-immunoprecipitation from HEK293T cells
T2 construct: also called hATG3; GFP-Atg3
T2 sequence (Q9NT62 whole entry): as the sequence (Q9NT62 whole entry, the tested form may be a part) above

NIH3T3 cells = experiment: GFP-LC3 autophagy with ectopic FLIP expression; type: cell-based; details: Hank's solution 4 hr or 2 μM rapamycin 3 hr
Description: At 12-16 hours post-transfection with GFP-LC3, NIH3T3 cells containing vector or the FLIP gene were treated with Hank's solution for 4 hr or with 2 μM rapamycin for 3 hr. Subsequently, GFP-LC3 was detected using an inverted fluorescence microscope, autophagy was quantified as means (±SD) of the combined results from three independent experiments, and autophagosomes were visualized through scanning electron microscopy. NIH3T3-Vector, NIH3T3-KSHV-vFLIP, and NIH3T3-MCV-159L cells were treated with Hank's solution for 4 hr, followed by immunoblotting with anti-LC3 and anti-βTubulin. At 12-16 hr post-transfection with GFP-LC3, TREX-BCBL-Vector and TREX-BCBL-vFLIP cells were treated with doxycycline for 24 hr, followed by incubation with 2 μM rapamycin for an additional 12 hr. The detection of GFP-LC3 and autophagy levels was performed as described above, vFLIP expression was detected by IB with anti-Flag, and autophagosomes were visualized by scanning EM. TNF-induced apoptosis and NF-κB luciferase assay were performed as previously described (Matta and Chaudhary (2004) Proc. Natl. Acad. Sci. USA 101:9399-9404).
The anti-autophagic properties of vFLIP, as well as the related cFLIP, HSV, and MCV, were evaluated by ectopic expression of HVS, vFLIP, MCV 159L, and the short form of cFLIP (cFLIPs) in NIHI3T3 cells. DNA fragments corresponding to the coding sequences of the KSHV-vFLIP, human cFLIPs, MCV-MC159, and HVS-vFLIP genes were amplified via polymerase chain reaction and subcloned into pcDNA5/FRT/TO between the AflII and BamHI restriction sites or pEF-IRES-puro between the AflII and XbaI sites. Starvation studies were carried out by transfecting cells containing vector or the FLIP gene with GFP-LC3, then 12-16 h post-transfection, treating the cells with Hank's solution for 4 hr or with 2 μM rapamycin for 3 hr. Autophagy was assessed by GFP-LC3 redistribution using an inverted fluorescence microscope, quantifying autophagy as means (±SD) of the combined results from three independent experiments. Autophagosomes were visualized through scanning electron microscopy. […]

[6] = biological target: T2, Atg3 (human Atg3, E2-like enzyme of the …); experiment: binding of Atg3 to the separate DEDs of vFLIP; method not detailed
NF-κB = NF-κB luciferase reporter assay; type: cell-based; details: NIH3T3 cells, 48 hr post-transfection
Description: To determine the effects of the interactions of vFLIP with FADD, IKKαβγ, and 14-3-3σ on anti-autophagy activity, NIH3T3 cells stably expressing various vFLIP mutants were constructed: m14-3-3σ, which lacks 14-3-3σ-binding; mTRAF2, which lacks TRAF2-binding (Guasparri et al. (2006) EMBO Rep. 7:114-119); 67AAA and 58AAA, which have reduced NF-κB activation (Matta and Chaudhary (2004) Proc. Natl. Acad. Sci. USA 101:9399-9404); and mFADD, which lacks FADD-binding (Yang et al. (2005) Mol. Cell. 20:939-949). These cells were treated with either cyclohexamide (CHX) alone or CHX and TNF-α for 12 hr or with 2 μM rapamycin for 3 hr. Propidium iodide (PI) staining and flow cytometry analysis were performed to determine apoptosis levels. Alternatively, NIH3T3 cells containing vector, KSHV vFLIP, or its mutants were transfected with an NF-κB-luciferase reporter construct and a control renilla luciferase plasmid, pRL-SV40 (Promega). At 48 hr post-transfection, luciferase activity was measured with a luminometer using a dual luciferase assay kit (Promega) and normalized with renilla luciferase activity to determine transfection efficiency. GFP-LC3 puncta were detected using an inverted fluorescence microscope and the autophagy levels quantified as means (±SD) of the results from three independent experiments.

Molecule: EVVLFLLNVF (also: GST fusion) [DED1α2 helix, α2 region of KSHV vFLIP aa 20-29, tested as mammalian GST fusion]
- Atg3 binding (GST pulldown) (Atg3 [1]): individually sufficient for Atg3 binding

Molecule: QTFLHWVYCMEN [DED2 α4 helix]
- Atg3 binding (GST pulldown) (Atg3 [1]): individually sufficient for Atg3 binding

Molecule: RRRQRRKKRGY-G ([dR][dR][dR][dQ][dR][dR][dK][dK][dR]G[dY]G; not fully specified; printed as RRRQRRKKRGY-G) [HIV-1 TAT only, HIV-1 TAT protein transduction domain alone, reference compound]
- cell death (in words) (TREX-BCBL-Vector cells): no increase in autophagy nor cell death
- autophagy induction (GFP-LC3 puncta) [2]: no increase in autophagy

Molecule: RRRQRRKKRGY-G-FVNLAAAVVE [K-α2m]
- cell death (in words) (TREX-BCBL-Vector cells): no increase in autophagy nor cell death
- autophagy induction (GFP-LC3 puncta) [2]: no increase in autophagy

Molecule: RRRQRRKKRGY-G-NEMCAAAHAATQ [K-α4m]
- cell death (in words) (TREX-BCBL-Vector cells): no increase in autophagy nor cell death
- anticancer activity in ALL cell lines (ALL cells): significant anticancer activities
- autophagy induction (GFP-LC3 puncta) [2]: no increase in autophagy

B1: HVS vFLIP (other)
chain: MDLKTTVLHITDSFTEEEMYCLLFLINGCIPRNCNAVKISDLIIETLSKSTQWDICLTQCLYVLRKIELLLNLFQVTKEDVKQSFFTQLQLETHVLTLVNVNNNLTAKDEKRLCFILDQFFPRNVVASSVILCVFSNMLCEMPVLECLCQLKKCLKQIGRSDLAKTV
notes: also called Flag-HVS vFLIP
- interaction with Atg3 (co-immunoprecipitation) (Atg3 [3]): interacted with Atg3 as efficiently as KSHV-vFLIP
- Atg3 region bound (GST pulldown) [4]: Atg3 binding patterns similar to KSHV vFLIP
- binding result [5]: binds
- suppression of starvation- and rapamycin-induced autophagy (NIH3T3 cells): strongly suppressed starvation- and rapamycin-induced autophagy

B2: KSHV vFLIP DED1 (other)
chain: MATYEVLCEVARKLGTDDREVVLFLLNVFIPQPTLAQLIGALRALKEEGRLTFPLLAECLFRAGRRDLLRDLLHLDPRFLERHLAGTMSY
notes: also called DED1 of KSHV vFLIP
- binding result [6]: binds

B3: KSHV vFLIP DED2 (other)
chain: FSPYQLTVLHVDGELCARDIRSLIFLSKDTIGSRSTPQTFLHWVYCMENLDLLGPTDVDALMSMLRSLSRVDLQRQVQTLMGLHLSGPSHSQHYRHTP
notes: also called DED2 of KSHV vFLIP
- binding result [6]: binds

B4: MCV 159L (MCV vFLIP) (other)
chain: MSDSKEVPSLPFLRHLLEELDSHEDSLLLFLCHDAAPGCTTVTQALCSLSQQRKLTLAALVEMLYVLQRMDLLKSRFGLSKEGAEQLLGTSFLTRYRKLMVCVGEELDSSELRALRLFACNLNPSLSTALSESSRFVELVLALENVGLVSPSSVSVLADMLRTLRRLDLCQQLVEYEQQEQARYRYCYAASPSLPVRTLRRGHGASEHEQLCMPVQESSDSPELLRTPVQESSSDSPEQTT
notes: also called MCV-MC159; MCV MC159
- interaction with Atg3 (co-immunoprecipitation) (Atg3 [3]): interacted with Atg3 as efficiently as KSHV-vFLIP
- Atg3 region bound (GST pulldown) [4]: Atg3 binding patterns similar to KSHV vFLIP
- NF-κB activation (NF-κB): did not carry out NF-κB activation
- binding result [5]: binds
- suppression of starvation- and rapamycin-induced autophagy (NIH3T3 cells): strongly suppressed starvation- and rapamycin-induced autophagy
